In US20210355194A1:

B1: variant 6-9 (Fc fusion)
VHH: EVQLVESGGGLVQPGGSLRLSCAASGFTFDYYAMGWFRQAPGKEREFVSAIDSEGRTSYADSVKGRFTISADNSKNTAYLQMNSLKPEDTAVYYCARWGPFDIWGQGTLVTVSS
B2: variant 6-63 (Fc fusion)
VHH: EVQLVESGGGLVQPGGSLRLSCAASGQTFNMGWFRQAPGKEREFVAAIGSGGSTSYADSVKGRFTISADNSKNTAYLQMNSLKPEDTAVYYCWRLGNDYFDYWGQGTLVTVSS

What was measured:
Conditions in all cases: remark: other sources report otherwise
[1] = target: T1, CV S-protein construct 6 trimer TP31001F (SARS-CoV-2), P0DTC2; assay: SPR
[2] = target: T1, CV S-protein construct 6 trimer …; assay: SPR; remark: listed apart in the source
[3] = target: SARS-COV2-S1 RBD (mouse IgG2Fc tag) (SARS-CoV-2), P0DTC2; assay: FACS, S1 RBD-mFc on Vero E6 (ACE2)
[4] = target: SARS-COV2-S1 RBD (mouse IgG2Fc tag) (SARS-CoV-2), P0DTC2; assay: column not explained; likely FACS, S1 RBD on Vero E6
[5] = target: SARS-COV2-S1 RBD (mouse IgG2Fc tag) (SARS-CoV-2), P0DTC2; assay: FACS, blocks S1 RBD-mFc binding to ACE2 on Vero E6

Binder	Kd [1]	Kd [2]	Competition Factor [3]	MFI Fold Decrease [4]	IC50 [5]
B1	0.9 nM	0.9 nM	–	–	–
B2	0.3 nM	0.3 nM	7.76	7.76 fold	0.74 nM
